{"source": "patent US20100040602A1", "about": "(RIBOVAX BIOTECHNOLOGIES, published 2010)", "key": {"[1]": {"target": "T1, gH(Ag)-GST fusion protein (gH amino terminal region, amino acids 16-144, hCMV strain VR1814, fused in frame … (human cytomegalovirus strain VR1814, UniProt P12824 16-144))", "T1 construct": "also called gH antigen; not shown: Glutathione-S-Transferase (GST)", "T1 chain": "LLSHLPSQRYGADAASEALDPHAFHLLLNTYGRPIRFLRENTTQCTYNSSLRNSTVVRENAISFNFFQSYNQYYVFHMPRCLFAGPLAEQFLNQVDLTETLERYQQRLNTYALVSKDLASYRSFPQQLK", "assay": "ELISA, plate-coated gH(Ag)-GST, cell culture supernatant, anti-human IgG-HRP"}, "[2]": {"target": "T2, CG3 antigen (recombinant interstrain fusion of gB Antigenic Domain 2 from hCMV strains AD169 and Towne) (human cytomegalovirus strain AD169; …)", "T2 construct": "Commercial antigen (Biotest AG, cod. 807035); also called gB (AD2) antigen", "T2 chain": "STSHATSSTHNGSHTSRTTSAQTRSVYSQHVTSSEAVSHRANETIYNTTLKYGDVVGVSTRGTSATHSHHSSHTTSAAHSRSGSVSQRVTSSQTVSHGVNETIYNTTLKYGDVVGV", "assay": "ELISA, CG3 antigen (gB AD2), cell culture supernatant"}}}
{"binder": "26A1 antibody (natural human IgG1 secreted by the 26A1 subculture, tested as cell culture supernatant) (antibody, V domains shown, It is a human IgG1; also called 26A1 IgG; IgG1 produced by 26A1 culture) VH: QVQLQESGPGLVKPSQTLSLICTVSGGSVSSGGDYWTWIRQHPGKGLEWLGYIHSSGNIFYNPSLKSRLTLSMDTSKNQFFLKLTSVTAADTAVYYCARVYHKDFVVVPGAFPFEFWFDPWGQGTLVTVSS VL: SYVLTQPPSVSVAPGQTARIPCGGNEIGSKSVHWYQQKPGQAPVLVVHDDSDRPSGIPDRFSGSNSGNTATLTISRVEAGDEADYYCQVWDSGSDHHVVFGGGTKLTVLG", "values": [{"measurement": "binding result", "setting": "[1]", "result": "no binding"}, {"measurement": "binding result", "setting": "[2]", "result": "no binding"}]}
